One test has as its target human FcgRIa (human). As to the kind of experiment: SPR.
The target in the next test is T1, human FcgRIIb (human).
T1 chain: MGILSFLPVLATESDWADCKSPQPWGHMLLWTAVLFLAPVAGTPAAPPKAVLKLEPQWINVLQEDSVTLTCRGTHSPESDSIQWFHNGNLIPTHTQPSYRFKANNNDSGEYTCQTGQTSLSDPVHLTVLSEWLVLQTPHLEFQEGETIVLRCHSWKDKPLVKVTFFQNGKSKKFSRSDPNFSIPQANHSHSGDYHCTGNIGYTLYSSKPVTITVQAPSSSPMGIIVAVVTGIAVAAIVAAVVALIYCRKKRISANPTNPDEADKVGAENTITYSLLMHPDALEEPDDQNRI
As to the kind of experiment: SPR. On the technique in general: In SPR one partner is held on a chip, and binding of the other changes the refractive index at the surface.

Sequence of human FcgRIa (human) (chain, as listed by the source): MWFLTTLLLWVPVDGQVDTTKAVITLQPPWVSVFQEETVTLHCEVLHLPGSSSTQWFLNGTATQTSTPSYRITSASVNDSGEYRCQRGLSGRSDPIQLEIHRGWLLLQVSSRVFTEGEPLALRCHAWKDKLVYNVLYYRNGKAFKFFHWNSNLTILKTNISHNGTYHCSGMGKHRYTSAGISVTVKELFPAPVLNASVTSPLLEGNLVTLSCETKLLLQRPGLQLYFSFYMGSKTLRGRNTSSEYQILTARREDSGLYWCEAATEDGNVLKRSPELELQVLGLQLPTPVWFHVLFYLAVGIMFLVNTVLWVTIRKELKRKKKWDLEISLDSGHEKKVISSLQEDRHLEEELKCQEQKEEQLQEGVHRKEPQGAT

B1: IL6R-BP083 (antibody)
chain 1: QVQLQESGPGLVKPSETLSLTCAVSGHSISHDHAWSWVRQPPGEGLEWIGFISYSGITNYNPSLQGRVTISRDNSKNTLYLQMNSLRAEDTAVYYCARSLARTTAMDYWGEGTLVTVSSASTKGPSVFPLAPSSKSTSGGTAALGCLVKDYFPEPVTVSWNSGALTSGVHTFPAVLQSSGLYSLSSVVTVPSSSLGTQTYICNVNHKPSNTKVDKKVEPKSCDKTHTCPPCPAPELLGGDSVFLFPPKPKDTLMISRTPEVTCVVVDVSHEDPEVKFNWYVDGVEVHNAKTKPREEQDNSTYRVVSVLTVLHQDWLNGKEYKCKVSNKALPKPIEKTISKAKGQPREPQVYTLPPSRDELTKNQVSLTCLVKGFYPSDIAVEWESNGQPENNYKTTPPVLDSDGSFFLYSKLTVDKSRWQQGNVFSCSVMHEALHNHYTQESLSLSP
chain 2: DIQMTQSPSSLSASVGDRVTITCRASQDISSYLNWYQQKPGKAPKLLIYYTSRLHSGVPSRFSGSGSGTDFTFTISSLQPEDIATYYCQQGNTLPYTFGQGTKVEIK
What is called Kd is the equilibrium constant for the complex coming apart. Higher therefore signals lower affinity. Take B1: the equilibrium dissociation constant (Kd) was 3.6 nM with human FcgRIa and 790 nM with human FcgRIIb.

B2: IL6R-BP133 (antibody)
chain 1: QVQLQESGPGLVKPSETLSLTCAVSGHSISHDHAWSWVRQPPGEGLEWIGFISYSGITNYNPSLQGRVTISRDNSKNTLYLQMNSLRAEDTAVYYCARSLARTTAMDYWGEGTLVTVSSASTKGPSVFPLAPSSKSTSGGTAALGCLVKDYFPEPVTVSWNSGALTSGVHTFPAVLQSSGLYSLSSVVTVPSSSLGTQTYICNVNHKPSNTKVDKKVEPKSCDKTHTCPPCPAPDYLGGDSVFLFPPKPKDTLMISRTPEVTCVVVDVSHEDPEVKFNWYVDGVEVHNAKTKPREEQYNSTYRVVSVLTVLHQDWLNGKEYKCKVSNKALPKPIEKTISKAKGQPREPQVYTLPPSRDELTKNQVSLTCLVKGFYPSDIAVEWESNGQPENNYKTTPPVLDSDGSFFLYSKLTVDKSRWQQGNVFSCSVMHEALHNHYTQESLSLSP
chain 2: DIQMTQSPSSLSASVGDRVTITCRASQDISSYLNWYQQKPGKAPKLLIYYTSRLHSGVPSRFSGSGSGTDFTFTISSLQPEDIATYYCQQGNTLPYTFGQGTKVEIK
Consider B2, for which the dissociation constant Kd with human FcgRIa came to 130 nM; in the test with human FcgRIIb, 560 nM.

B3: IL6R-2B261 (antibody)
chain 1: QVQLQESGPGLVKPSETLSLTCAVSGHSISHDHAWSWVRQPPGEGLEWIGFISYSGITNYNPSLQGRVTISRDNSKNTLYLQMNSLRAEDTAVYYCARSLARTTAMDYWGEGTLVTVSSASTKGPSVFPLAPSSKSTSGGTAALGCLVKDYFPEPVTVSWNSGALTSGVHTFPAVLQSSGLYSLSSVVTVPSSSLGTQTYICNVNHKPSNTKVDKKVEPKSCDKTHTCPPCPAPDLLGGDSVFLFPPKPKDTLMISRTPEVTCVVVDVSHEDPEVKFNWYVDGVEVHNAKTKPREEQDNSTYRVVSVLTVLHQDWLNGKEYKCKVSNKALPAPIEKTISKAKGQPREPQVYTLPPSRDELTKNQVSLTCLVKGFYPSDIAVEWESNGQPENNYKTTPPVLDSDGSFFLYSKLTVDKSRWQQGNVFSCSVMHEALHNHYTQESLSLSP
chain 2: DIQMTQSPSSLSASVGDRVTITCRASQDISSYLNWYQQKPGKAPKLLIYYTSRLHSGVPSRFSGSGSGTDFTFTISSLQPEDIATYYCQQGNTLPYTFGQGTKVEIK
For B3, the Kd with human FcgRIa turned out to be 9 nM; with human FcgRIIb it was 1000 nM.

B4: IL6R-BP150 (antibody)
chain 1: QVQLQESGPGLVKPSETLSLTCAVSGHSISHDHAWSWVRQPPGEGLEWIGFISYSGITNYNPSLQGRVTISRDNSKNTLYLQMNSLRAEDTAVYYCARSLARTTAMDYWGEGTLVTVSSASTKGPSVFPLAPSSKSTSGGTAALGCLVKDYFPEPVTVSWNSGALTSGVHTFPAVLQSSGLYSLSSVVTVPSSSLGTQTYICNVNHKPSNTKVDKKVEPKSCDKTHTCPPCPAPEYLGDDSVFLFPPKPKDTLMISRTPEVTCVVVDVSHEDPEVKFNWYVDGVEVHNAKTKPREEQYNSTYRVVSVLTVLHQDWLNGKEYKCKVSNAALPKPIEKTISKAKGQPREPQVYTLPPSRDELTKNQVSLTCLVKGFYPSDIAVEWESNGQPENNYKTTPPVLDSDGSFFLYSKLTVDKSRWQQGNVFSCSVMHEALHNHYTQESLSLSP
chain 2: DIQMTQSPSSLSASVGDRVTITCRASQDISSYLNWYQQKPGKAPKLLIYYTSRLHSGVPSRFSGSGSGTDFTFTISSLQPEDIATYYCQQGNTLPYTFGQGTKVEIK
For the molecule B4, the figures for the Kd in the test with human FcgRIa and with human FcgRIIb were 320 nM and 31 nM, respectively.

For the origin of these results see patent US10618965 (dated 2020).
